B1: COMPcc: cartilage oligomeric matrix protein coiled-coil, parent protein, SEQ ID NO:2 (protein)
chain: MRGSHHHHHHGSGDLAPQMLRELQETNAALQDVRELLRQQVKEITFLKNTVMESDASGKLN
modifications: supercharged coiled-coil protein
B2: CSP: engineered supercharged coiled-coil protein, SEQ ID NO:1; COMPcc with eight solvent-exposed residues mutated to arginine (protein)
chain: MRGSHHHHHHGSGRLRPQMLRELQRTNAALRDVRELLRQQVKEITRLKNTVRRSRASGKLN
modifications: supercharged coiled-coil protein
notes: COMPcc with eight solvent-exposed residues mutated to arginine

Tests used:
[1] = test system: β-galactosidase plasmid DNA; test: Electrophoretic mobility shift assay (gel retardation) of protein binding to plasmid DNA; settings: protein to DNA w/w ratio 18:1
Experimental: The β-galactosidase plasmid DNA (5.1 kb) at a concentration of 50 ng was mixed with different concentrations of CSP and COMPcc and incubated at room temperature for 30 minutes. The mixtures were run on 1% agarose gel (stained with ethidium bromide) and imaged under UV light using ImageQuant (GE healthcare).

[2] = Curcumin binding/loading to protein
[3] = Doxorubicin binding/loading to protein
[4] = test system: MCF7; test: β-galactosidase gene transfection across different cell lines; format: cell-based
[5] = test system: MC3T3-E1 cells; test: Cell viability by MTT assay; format: cell-based, mouse
Experimental: Cell viability studies. The cells were seeded in 96-well plate at a density of […] in αMEM with 10% FBS and incubated at 37° C. with 5% CO2 overnight. The cytotoxicity of different complexes was evaluated by 3-(4,5-dimethylthiazol-2-yl)-2,5-diphenyl […] bromide, MTT assay. Approximately 10 μL of MTT reagent from 5 mg/mL stock was added to each well and incubated for 4 hours at 37° C. with 5% CO2. After incubation, the entire medium was aspirated and 100 μL of dimethyl sulfoxide was added to each well. The change in absorbance of colored solution was observed using a microplate reader Synergy HT at 570 nm. The percent cell viability was calculated by normalizing the observed absorbance value to that of the control cells without any treatment. The data was represented as the average of quadruplicates±standard deviation.

[6] = CD spectroscopy temperature scan (melting temperature); format: physicochemical; settings: CD at 222 nm
Experimental: CD spectroscopy. The secondary structure of CSP/COMPcc was analyzed using a Jasco J-815 spectrometer at 10 μM protein concentration in 50 mM Tris-HCl buffer pH 8.0. The wavelength scans were performed at 4° C. over a range of 200-250 nm with a 1 nm step size. Temperature scans were performed at 222 nm from 20° C. to 85° C. with temperature ramp of 1° C./min The observed ellipticity value (Θ) was converted into mean residue ellipticity (MRE) using the standard equation ΘMRE=Θ/(10 cpl) where c is the molar concentration of the protein, p is the path length in centimeters and l is the number of amino acids. The fraction folded was derived using equation F=(ΘA−ΘU)/(ΘN−ΘU), where, ΘA is the MRE observed at given temperature, ΘU is MRE value for completely unfolded protein and ΘN is the MRE value of completely folded protein that is considered at 25° C. The first derivative of fraction folded was used to calculate melting temperature (Tm) of protein. All data were represented as an average of three trials.

Row | Molecule | DNA shift at higher protein to DNA ratio [1] | curcumin loading [2] [%] | doxorubicin loading [3] [%] | β-galactosidase gene transfection (in words) [4] | cytotoxicity (in words) [5] | decrease in the melting temperature (Tm) in comparison to the parent COMPcc [6] [°C]
1 | B1 | negligible DNA shift | 64 | 26 | – | – | –
2 | B2 | – | 63 | 31 | drastic increase in transfection | not cytotoxic | 10

Source: patent publication US9453060B2, “Protein engineered systems for delivery of molecules” (New York University, priority 2013, dated 2016)
